Data reported in US20200239570A1 (CRESCENDO BIOLOGICS, published 2020).
Where a chain is given by its changes, count along the chain named.

T1: mouse PD1 (R&D Systems cat no. 1021-PD) (mouse, UniProt Q02242 25-167)
T1 construct: bought recombinant protein; also called mouse PD-1 protein
T1 sequence (looked up): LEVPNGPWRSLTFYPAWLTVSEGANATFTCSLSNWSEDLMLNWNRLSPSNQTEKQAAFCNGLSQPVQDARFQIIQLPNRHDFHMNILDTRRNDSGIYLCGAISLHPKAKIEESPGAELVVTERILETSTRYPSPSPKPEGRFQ

B1: Humabody VH 1.26 (VHH)
VHH: EVQLVESGGGLVQPGRSLRLSCAASGFTFDDYAMHWVRQAPGKDLEWVSGISWNGGSMGYADSVKGRFTISRDNAKNSLYLQMNSLRAEDTALYYCVREKGPGLTGSTADYYGLDAWGQGTMVTVSS
notes: human VH single domain antibody
B2: Humabody VH 1.37 (VHH)
VHH: B1 VHH with M34F
notes: as for B1
B3: Humabody VH 1.34 (VHH)
VHH: B1 VHH with M58Q
notes: as for B1
B4: Humabody VH 1.33 (VHH)
VHH: B1 VHH with M58Y
notes: as for B1
B5: VH single domain antibody 2.1 (VHH)
VHH: EVQLVESGGGVVRPGGSLRLSCAASGFTFDDYAMSWVRQAPGKGLEWVSGITWNGGSTGYADSVKDRFTISRDNAKNSLYLQMNSLRAEDTALYYCVRDKYSYAWSYDGFDIWGQGTMVTVSS
notes: human VH single domain antibody; also called Humabody VH 2.1; clone 2.1
B6: Humabody VH 2.52 (VHH)
VHH: B5 VHH with G109V
notes: as for B1
B7: Humabody VH 2.53 (VHH)
VHH: B5 VHH with G109D
notes: as for B1
B8: Humabody VH 2.27 (VHH)
VHH: B5 VHH with G55A, G109D
notes: as for B1
B9: Humabody VH 2.12 (VHH)
VHH: B5 VHH with G55A, D66G, G109D
notes: as for B1
B10: Humabody VH 2.37 (VHH)
VHH: B5 VHH with M34L
notes: as for B1
B11: Humabody VH 2.13 (VHH)
VHH: B5 VHH with G55R, D66G, G109D
notes: as for B1
B12: Humabody VH 2.39 (VHH)
VHH: B5 VHH with M34E
notes: as for B1
B13: 1.21 (VHH)
VHH: B1 VHH with D62A, A116V
notes: also called VH single domain antibody 1.21; Humabody VH 1.21
B14: Humabody VH 1.50 (VHH)
VHH: B1 VHH with M34F, G55A, M58Q
notes: as for B1
B15: Humabody VH 1.40 (VHH)
VHH: B1 VHH with M34L, M58Q
notes: as for B1
B16: Humabody VH 1.47 (VHH)
VHH: B1 VHH with M34F, G55S, M58Y
notes: as for B1
B17: Humabody VH 1.44 (VHH)
VHH: B1 VHH with M34L, G55S, M58Y
notes: as for B1
B18: Humabody VH 1.48 (VHH)
VHH: B1 VHH with M34L, G55S, M58Q
notes: as for B1
B19: Blocking VH-4GS-1.39 (protein, part only; not given: 4GS linker, part only)
VH(A)-linker-VH, part: EVQLVESGGGLVKPGGSLRLSCAASGFTFSDESMTWMRQAPGKGLEWVSYISSGGGVKFYADSVKGRFTISRDNAKNSLYLQMNSLRAEDTAVYYCAREAPLRLGESPHDAFDISGQGTMVTVSSEVQLVESGGGLVQPGRSLRLSCAASGFTFDDYALHWVRQAPGKDLEWVSGISWNGGSYGYADSVKGRFTISRDNAKNSLYLQMNSLRAEDTALYYCVREKGPGLTGSTADYYGLDAWGQGTMVTVSS
B20: Blocking VH-4GS-2.12 (protein, part only; not given: 4GS linker, part only)
VH(A)-linker-VH, part: EVQLVESGGGLVKPGGSLRLSCAASGFTFSDESMTWMRQAPGKGLEWVSYISSGGGVKFYADSVKGRFTISRDNAKNSLYLQMNSLRAEDTAVYYCAREAPLRLGESPHDAFDISGQGTMVTVSSEVQLVESGGGVVRPGGSLRLSCAASGFTFDDYAMSWVRQAPGKGLEWVSGITWNAGSTGYADSVKGRFTISRDNAKNSLYLQMNSLRAEDTALYYCVRDKYSYAWSYDDFDIWGQGTMVTVSS

Target: T2, human PD-1 expressed on cells (CHO human PD-1 cells) (human, UniProt Q15116 21-288)
T2 construct: CHO cells in the FMAT assays; Jurkat reporter cells in the reporter assay; primary CD4+ T cells in the mixed lymphocyte reaction; also called CHO TREX human PD1 cell line; CHO PD-1
T2 sequence (Q15116 21-288): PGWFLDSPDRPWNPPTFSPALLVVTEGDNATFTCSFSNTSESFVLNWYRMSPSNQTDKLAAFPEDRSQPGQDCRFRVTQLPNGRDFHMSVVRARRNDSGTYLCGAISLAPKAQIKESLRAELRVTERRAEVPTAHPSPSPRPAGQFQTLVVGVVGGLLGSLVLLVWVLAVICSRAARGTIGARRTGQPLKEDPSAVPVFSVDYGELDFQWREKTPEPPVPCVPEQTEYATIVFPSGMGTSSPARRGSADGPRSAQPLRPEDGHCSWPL
Assay: FMAT epitope competition on CHO human PD-1 cells; competitor 2 nM 1.1-Strep tagged protein
Description: (§1) For the epitope competition assay reagents were prepared in FMAT assay buffer. […] Plates were incubated for a minimum of 1.5 hours at room temperature then fluorescence measured in the FL2 (502 nm-537 nm) and FL5 (677-800 nm) channels on the Mirrorball plate reader (TTP) following excitation at 488 nm and 640 nm. Data was expressed as a % of the total binding control (i.e. % control) after subtraction of the background signal determined from the non-specific binding control wells.

Row | Binder | IC50
1 | B1 | 8 nM
2 | B2 | 7.5 nM
3 | B3 | 6.5 nM
4 | B4 | 2.5 nM
5 | B5 | 9.2 nM
6 | B6 | 6.5 nM
7 | B7 | 7 nM
8 | B8 | 9 nM

Target: T3, cynomolgus PD-1 (Acro Biosystems cat no. PD1-C5254) (cynomolgus, UniProt B0LAJ3 25-170)
T3 construct: bought recombinant protein; also called cyno PD-1; cynomolgus PD-1 recombinant protein; not shown: Human Fc tag of the vendor's construct, and any linker to it; The Fc is implied by detection with anti human-Fc cryptate
T3 sequence (B0LAJ3 entry or part of it limits assumed): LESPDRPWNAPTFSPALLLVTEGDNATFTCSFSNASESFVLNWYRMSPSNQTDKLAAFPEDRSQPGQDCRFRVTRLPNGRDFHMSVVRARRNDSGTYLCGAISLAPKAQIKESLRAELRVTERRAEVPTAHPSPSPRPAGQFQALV
Assay: HTRF binding assay, His-tagged VH on 2 nM recombinant PD-1
Description: (§2) Purified VH were tested for their ability to bind to human PD-1 (R&D Systems cat no. 1086-PD), cynomolgus PD-1 (Acro Biosystems cat no. PD1-C5254) and mouse PD1 (R&D Systems cat no. 1021-PD) in an HTRF Binding assay format. All reagents and serially diluted VH were prepared in assay buffer containing PBS, 0.1% BSA and 0.4M Potassium Fluoride. Samples or assay buffer (non-specific binding) were incubated with 2 nM human/cynomolgus or mouse PD-1, 1 nM Anti human-Fc Cryptate PAb (Cisbio cat. no. 61HFCKLB) and 30 nM anti His-D2 (CisBio cat no 61HISDLA) in black 384-shallow well assay plates for a minimum of 3 hours at room temperature. Time-resolved fluorescent emission at 620 nm and 665 nm was measured following excitation at 337 nm on the BMG PHERAstar plate reader. The HTRF ratio were calculated ((665 nm emission/620 nm emission)*10000) and the data corrected for (non-specific binding) to give the specific binding signal.

Row | Binder | EC50
9 | B5 | 6.3 nM
10 | B9 | 18 nM

Target: T4, recombinant human PD-1 Fc chimera (human, UniProt Q15116 25-167)
T4 construct: Bought (R&D 1086-PD); Labelled with europium cryptate in the PD-L2 HTRF assay; also called human PD-1 (R&D Systems cat no. 1086-PD); human PD-1-huFc; not shown: human Fc of the bought chimera
T4 sequence (Q15116 25-167, change not shown): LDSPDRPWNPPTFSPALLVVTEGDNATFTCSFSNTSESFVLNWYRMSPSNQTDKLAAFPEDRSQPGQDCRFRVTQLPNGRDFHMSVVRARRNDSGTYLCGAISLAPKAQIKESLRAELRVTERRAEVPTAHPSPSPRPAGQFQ
Assay: as above
Description: as §2

Row | Binder | EC50
11 | B5 | 3.3 nM
12 | B9 | 13 nM

Target: T2, human PD-1 expressed on cells (CHO …)
Assay: FMAT, His-tagged VH on CHO human PD-1 cells

Row | Binder | EC50
13 | B5 | 0.7 nM
14 | B9 | 1.3 nM

Target: T4, recombinant human PD-1 Fc chimera
Assay: BLI (Octet), PD-1-huFc on biosensor, 1:1 fit
Description: Binding kinetics of clones to human PD-1-huFc were measured in real-time bio-layer interferometer based biosensor Octet (ForteBio). Recombinant human PD-1-huFc was either immobilized by standard amine coupling to amine reactive biosensors in 10 mM sodium acetate at pH 5.0 or capture by protein G biosensors (ForteBio). All the binding studies were performed in HBS-ET Octet kinetics buffer. Biosensors were always washed in Octet kinetics buffer in between different steps. A seven point, two-fold dilution series of each Humabody® VH was made with a top concentration in range 100-30 nM. The contact time for each of the association steps was varied between 180-300 seconds and the dissociation step was varied between 400-600 seconds. Kinetic association (kₐ) and dissociation (kd) rate constants were determined by processing and fitting the data to a 1:1 binding model using ForteBio Analysis software.

Row | Binder | Kd | koff | kon
15 | B2 | 5.5 nM | 0.0013 s⁻¹ | 240000 M⁻¹ s⁻¹
16 | B3 | 3.6 nM | 0.0007 s⁻¹ | 190000 M⁻¹ s⁻¹
17 | B4 | 2 nM | 0.00074 s⁻¹ | 370000 M⁻¹ s⁻¹
18 | B5 | 2.6 nM | 0.0015 s⁻¹ | 590000 M⁻¹ s⁻¹
19 | B10 | 3.4 nM | 0.0015 s⁻¹ | 450000 M⁻¹ s⁻¹
20 | B6 | 3.3 nM | 0.0022 s⁻¹ | 670000 M⁻¹ s⁻¹
21 | B11 | 25 nM | 0.035 s⁻¹ | 1.3e+06 M⁻¹ s⁻¹
22 | B12 | 1.6 nM | 0.00059 s⁻¹ | 370000 M⁻¹ s⁻¹
23 | B7 | 16 nM | 0.017 s⁻¹ | 1e+06 M⁻¹ s⁻¹

Target: T2, human PD-1 expressed on cells (CHO …)
Assay: FMAT binding assay on CHO human PD-1 cells, detection by anti-His
From the text: Plates were read in the FL2 (502 nm-537 nm) and FL5 (677-800 nm) channels on the TTP Mirrorball plate reader following excitation at 488 nm and 640 nm. Data was gated on FL5 perimeter and peak intensity and the FL2 median mean fluorescence intensity of the gated data used for determination of VH binding.

Row | Binder | EC50 (read off the curve)
24 | B13 | ~0.7 nM

Target: T4, recombinant human PD-1 Fc chimera
Assay: SPR (Biacore T200), PD-1-huFc amine-coupled to CM5, single cycle kinetics, 1:1 fit
Description: Binding kinetics of certain VH single domain antibodies binding to human PD-1-huFc were measured by surface plasmon resonance (SPR) technology using Biacore T200 instrument (GE Healthcare). Recombinant human PD-1-huFc was immobilized by standard amine coupling to CM5 sensorschip (GE Healthcare) using 0.01 mg/ml solution of antigen in 10 mM sodium acetate at pH 5.5. For the reference flow cell, a blank immobilisation was carried out. Single cycle kinetics assays were used to study the interaction, a five point, three-fold dilution series of each Humabody® was made with a top concentration of 30 nM. The binding kinetics were followed by flowing the Humabody® over the chip surface in HBS EP+ buffer at a flow rate of 30 μl/min. The contact time for each of the association steps was 180 seconds and the dissociation step was varied between 1200-3600 seconds. The data was fitted to a 1:1 binding model after double reference subtraction using the Biacore T200 Evaluation software.

Row | Binder | Kd | koff | kon
25 | B1 | 7.94 nM | 0.00211 s⁻¹ | 265000 M⁻¹ s⁻¹
26 | B14 | 14.3 nM | 0.00229 s⁻¹ | 160000 M⁻¹ s⁻¹
27 | B15 | 5.98 nM | 0.00145 s⁻¹ | 243000 M⁻¹ s⁻¹
28 | B16 | 10.2 nM | 0.00254 s⁻¹ | 248000 M⁻¹ s⁻¹
29 | B17 | 9.1 nM | 0.00204 s⁻¹ | 224000 M⁻¹ s⁻¹
30 | B18 | 16.2 nM | 0.00291 s⁻¹ | 180000 M⁻¹ s⁻¹
31 | B9 | 6.89 nM | 0.0385 s⁻¹ | 5.5e+06 M⁻¹ s⁻¹

Target: human PD-1 expressed on cells (CHO human PD-1 cells) (human) (UniProt Q15116)
Sequence (Q15116 21-288): as the sequence (Q15116 21-288) above
Assay: not given

Row | Binder | EC50 (read off the curve), NFAT-luciferase reporter
32 | B19 | 2 nM
33 | B20 | 1 nM

Target: T1, mouse PD1 (R&D Systems cat no. 1021-PD)
Assay: HTRF binding assay, 2 nM mouse PD-1

Row | Binder | binding result
34 | B5 | no binding
35 | B9 | no binding

Target: T2, human PD-1 expressed on cells (CHO …)
Assay: FMAT epitope competition on CHO human PD-1 cells; competitor 2 nM 2.1-Strep tagged protein
Description: as §1

Row | Binder | IC50
36 | B5 | 9.4 nM
37 | B6 | 21 nM
38 | B7 | 14 nM
39 | B8 | 13 nM
